Assay results reported in publication PMC3565344, “Gamma-Aminobutyric Acid Production Using Immobilized Glutamate Decarboxylase Followed by Downstream Processing with Cation Exchange Chromatography” (International Journal of Molecular Sciences, 2013).
Where “and” joins values, the source holds several entries; their conditions need not be identical. Equal values may be shown once.

Target: the molecule itself
Experiment: SEC; size exclusion HPLC on TSKgel G3000SW; 20 uL purified GAD injected; isocratic elution at 1 mL/min for 30 min; 0.1 M sodium sulfate in 0.1 M phosphate buffer, pH 6.8; mix of monomer, dimer and tetramer

B1: Escherichia coli glutamate decarboxylase fused to six histidine at its C-terminus (enzyme, E. coli, UniProt P69910 1-466, looked up)
chain: MDKKQVTDLRSELLDSRFGAKSISTIAESKRFPLHEMRDDVAFQIINDELYLDGNARQNLATFCQTWDDENVHKLMDLSINKNWIDKEEYPQSAAIDLRCVNMVADLWHAPAPKNGQAVGTNTIGSSEACMLGGMAMKWRWRKRMEAAGKPTDKPNLVCGPVQICWHKFARYWDVELREIPMRPGQLFMDPKRMIEACDENTIGVVPTFGVTYTGNYEFPQPLHDALDKFQADTGIDIDMHIDAASGGFLAPFVAPDIVWDFRLPRVKSISASGHKFGLAPLGCGWVIWRDEEALPQELVFNVDYLGGQIGTFAINFSRPAGQVIAQYYEFLRLGREGYTKVQNASYQVAAYLADEIAKLGPYEFICTGRPDEGIPAVCFKLKDGEDPGYTLYDLSERLRLRGWQVPAFTLGGEATDIVVMRIMCRRGFEMDFAELLLEDYKASLKYLSDHPKLQGIAQQNSFKHT
notes: glutamate decarboxylase (GAD, EC 4.1.1.15) of E. coli, gene amplified from genomic DNA (GenBank M84025); The reverse primer puts an XhoI site (CTCGAG, would encode Leu-Glu) between the last GAD codon and the six histidines; this is my reading of the primer; also called GAD; EGAD; source: E. coli BL21 (DE3), purified (HisTrap HP, buffer exchange on Sephadex G-25); not shown: His6, C-terminal, kept
stoichiometry N: 2 and 4
